Data taken from patent publication US20180155451A1 (published 2018).

How the values were obtained:
FcgRIa = biological target: T1, FcgRIa (human, UniProt P12314 16-292); experiment: SPR (Biacore), antibody captured on chip, FcgR as analyte
T1 construct: extracellular domain; also called FcγRIa; FcγRI; not shown: C-terminal His tag
Protocol: (§1) The variants described above were assessed for their binding to FcγR according to the method described in Reference Example 8.
(§2) Analysis of interaction between obj ective antibody and the FcγR was carried out using Biacore T100 (GE Healthcare), Biacore T200, Biacore A100, and Biacore 4000. HBS-EP+ (GE Healthcare) was used as the running buffer, and the measurement temperature was set to 25° C. Chips produced by immobilizing the antigen peptide by the amine coupling method to a Series S sensor Chip CM5 (GE Healthcare), chips produced by allowing preliminarily biotinylated antigen peptides to interact with and immobilize onto a Series S Sensor Chip SA (certified) (GE Healthcare), chips produced by immobilizing Protein L (ACTIGEN, BioVision) to Series S Sencor Chip CM5 (GE Healthcare), or chips produced by immobilizing Protein A/G (Thermo Scientific) to Series S Sencor Chip CM5 (GE Healthcare) were used. Antibodies of interest were captured onto these chips, and allowed to interact to each FcγR diluted with running buffer. To regenerate and repeatedly use the chip, the antibodies captured onto the chip were washed off by reacting 10 mM glycine-HCl, pH 1.5.

FcgRIIaR [1] = biological target: T2, FcgRIIaR (human, UniProt P12318 34-217); experiment: as above
T2 construct: extracellular domain; R131 allotype; also called FcγRIIa R; FcgRIIa type R; not shown: C-terminal His tag
T2 sequence (looked up): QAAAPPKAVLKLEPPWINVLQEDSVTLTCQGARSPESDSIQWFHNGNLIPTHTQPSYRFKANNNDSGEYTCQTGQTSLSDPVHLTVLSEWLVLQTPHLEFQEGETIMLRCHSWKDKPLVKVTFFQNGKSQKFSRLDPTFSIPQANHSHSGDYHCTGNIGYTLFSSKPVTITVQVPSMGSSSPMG
Protocol: as §1, §2

FcgRIIaH [2] = biological target: T3, FcgRIIaH (human, UniProt P12318 34-217); experiment: as above
T3 construct: extracellular domain; H131 allotype; also called FcγRIIa H; FcgRIIa type H; not shown: C-terminal His tag
T3 sequence (looked up): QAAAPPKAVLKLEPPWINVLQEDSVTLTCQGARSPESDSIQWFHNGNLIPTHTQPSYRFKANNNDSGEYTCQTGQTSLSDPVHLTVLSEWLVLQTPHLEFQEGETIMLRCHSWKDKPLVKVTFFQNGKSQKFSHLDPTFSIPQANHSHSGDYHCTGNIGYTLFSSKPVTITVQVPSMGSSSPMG
Protocol: as §1, §2

FcgRIIb [3] = biological target: T4, FcgRIIb (human, UniProt P31994 43-217); experiment: as above
T4 construct: extracellular domain; also called FcγRIIb; CD32B; not shown: C-terminal His tag
T4 sequence (looked up): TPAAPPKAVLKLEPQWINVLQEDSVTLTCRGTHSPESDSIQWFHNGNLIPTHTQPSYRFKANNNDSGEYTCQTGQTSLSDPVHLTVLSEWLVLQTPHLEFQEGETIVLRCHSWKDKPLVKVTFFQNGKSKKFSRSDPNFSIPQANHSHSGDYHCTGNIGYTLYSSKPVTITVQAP
Protocol: as §1, §2

FcgRIIIaF [4] = biological target: T5, FcgRIIIaF (human, UniProt P08637 17-208); experiment: as above
T5 construct: extracellular domain; F158 allotype; also called FcγRIIIa F; not shown: C-terminal His tag
T5 sequence (P08637 17-208): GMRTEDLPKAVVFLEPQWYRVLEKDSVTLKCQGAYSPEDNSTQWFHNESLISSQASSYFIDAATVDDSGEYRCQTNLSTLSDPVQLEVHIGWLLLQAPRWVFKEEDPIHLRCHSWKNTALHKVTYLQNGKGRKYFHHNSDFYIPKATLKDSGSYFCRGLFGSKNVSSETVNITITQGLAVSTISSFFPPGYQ
Protocol: as §1, §2

FcgRIIIaV [5] = biological target: T6, FcgRIIIaV (human, UniProt P08637 17-208); experiment: as above
T6 construct: extracellular domain; V158 allotype; also called FcγRIIIa V; not shown: C-terminal His tag
T6 sequence (P08637 17-208 F176V limits assumed): as the sequence (P08637 17-208) above, with F160V counted along it
Protocol: as §1, §2

FcgRIIaR [6] = biological target: T2, FcgRIIaR; experiment: SPR (Biacore); KD of H240-Kn120/H240-Hl068/L73-k0 divided by KD of the sample
Protocol: as §1, §2

FcgRIIaH [7] = biological target: T3, FcgRIIaH; experiment: as above
Protocol: as §1, §2

FcgRIIb [8] = biological target: T4, FcgRIIb; experiment: as above
Protocol: as §1, §2

FcgRIIIaF [9] = biological target: T5, FcgRIIIaF; experiment: as above
Protocol: as §1, §2

FcgRIIIaV [10] = biological target: T6, FcgRIIIaV; experiment: as above
Protocol: as §1, §2

T1 sequence (P12314 16-292): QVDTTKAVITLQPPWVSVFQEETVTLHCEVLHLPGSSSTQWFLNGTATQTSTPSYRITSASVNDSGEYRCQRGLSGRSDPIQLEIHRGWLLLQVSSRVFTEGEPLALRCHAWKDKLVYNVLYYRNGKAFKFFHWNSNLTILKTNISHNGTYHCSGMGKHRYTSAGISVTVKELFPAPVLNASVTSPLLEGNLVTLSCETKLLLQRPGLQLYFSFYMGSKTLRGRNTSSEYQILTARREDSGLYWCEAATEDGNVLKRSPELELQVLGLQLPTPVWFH

Binder | Kd (FcgRIa) [nM] | Kd (FcgRIIaR [1]) [nM] | Kd (FcgRIIaH [2]) [nM] | Kd (FcgRIIb [3]) [nM] | Kd (FcgRIIIaF [4]) [nM] | Kd (FcgRIIIaV [5]) [nM] | Relative KD (FcgRIIaR [6]) | Relative KD (FcgRIIaH [7]) | Relative KD (FcgRIIb [8]) | Relative KD (FcgRIIIaF [9]) | Relative KD (FcgRIIIaV [10])
H240-Kn179/H240-Hl089/L73-k0 (antibody, human IgG1, kappa, Heterodimerized anti-epiregulin antibody; E294R in one chain, G236T in the other) heavy 1: QDQLVQSGAEVKKPGASVKVSCKASGFNIKDTYIQWVRQAPGQGLEWMGRIDPLRKQTKYREKFEGRVTITADTSTNTAYMELSSLRSEDTAVYYCVRSGREFDYWGQGTLVTVSSASTKGPSVFPLAPSSKSTSGGTAALGCLVKDYFPEPVTVSWNSGALTSGVHTFPAVLQSSGLYSLSSVVTVPSSSLGTQTYICNVNHKPSNTKVDKKVEPKSCDKTHTCPPCPAPEYYWGPMVFLFPPKPKDTLMISRTPEVTCVVVDVSDEDPEVKFNWYVDGVEVHNAKTKPREKQYNATYRVVSVLTVLHQDWLNGKEYKCKVSNKDLPAPIEKTISKAKGQPREPQVCTLPPSRDELTKNQVSLWCLVKGFYPSDIAVEWESNGQPENNYKTTPPVLDSDGSFFLYSKLTVDKSRWQQGNVFSCSVMHEALHNHYTQKSLSLSP heavy 2: QDQLVQSGAEVKKPGASVKVSCKASGFNIKDTYIQWVRQAPGQGLEWMGRIDPLRKQTKYREKFEGRVTITADTSTNTAYMELSSLRSEDTAVYYCVRSGREFDYWGQGTLVTVSSASTKGPSVFPLAPSSKSTSGGTAALGCLVKDYFPEPVTVSWNSGALTSGVHTFPAVLQSSGLYSLSSVVTVPSSSLGTQTYICNVNHKPSNTKVDKKVEPKSCDKTHTCPPCPAPELLTGPSVFLFPPKPKDTLMISRTPEVTCVVVDVSHEEPEVKFNWYVDGVEVHNAKTKPREEQYNSTYRVVSVLTVLHQDWLNGKEYKCKVSNDALPKPIEETISKAKGQPREPQVYTLPPSRCELTKNQVSLSCAVKGFYPSDIAVEWESNGQPENNYKTTPPVLDSDGSFFLVSKLTVDKSRWQQGNVFSCSVMHEALHNHYTQKSLSLSP light: DIQMTQSPSSLSASVGDRVTITCRASQDIHKYIAWYQQKPGQAPRLLIQYTSTLQPGVPSRFSGSGSGTDYTFTISSLQPEDIATYYCLQYEQLRTFGGGTKVEIKRTVAAPSVFIFPPSDEQLKSGTASVVCLLNNFYPREAKVQWKVDNALQSGNSQESVTEQDSKDSTYSLSSTLTLSKADYEKHKVYACEVTHQGLSSPVTKSFNRGEC | 0.46 | 18 | 47 | 400 | 39 | 18 | 1.1 | 0.9 | 0.4 | 0.1 | 0
H240-Kn180/H240-Hl089/L73-k0 (antibody, human IgG1, kappa, Heterodimerized anti-epiregulin antibody; E294K in one chain, G236T in the other) heavy 1: QDQLVQSGAEVKKPGASVKVSCKASGFNIKDTYIQWVRQAPGQGLEWMGRIDPLRKQTKYREKFEGRVTITADTSTNTAYMELSSLRSEDTAVYYCVRSGREFDYWGQGTLVTVSSASTKGPSVFPLAPSSKSTSGGTAALGCLVKDYFPEPVTVSWNSGALTSGVHTFPAVLQSSGLYSLSSVVTVPSSSLGTQTYICNVNHKPSNTKVDKKVEPKSCDKTHTCPPCPAPEYYWGPMVFLFPPKPKDTLMISRTPEVTCVVVDVSDEDPEVKFNWYVDGVEVHNAKTKPRERQYNATYRVVSVLTVLHQDWLNGKEYKCKVSNKDLPAPIEKTISKAKGQPREPQVCTLPPSRDELTKNQVSLWCLVKGFYPSDIAVEWESNGQPENNYKTTPPVLDSDGSFFLYSKLTVDKSRWQQGNVFSCSVMHEALHNHYTQKSLSLSP heavy 2: QDQLVQSGAEVKKPGASVKVSCKASGFNIKDTYIQWVRQAPGQGLEWMGRIDPLRKQTKYREKFEGRVTITADTSTNTAYMELSSLRSEDTAVYYCVRSGREFDYWGQGTLVTVSSASTKGPSVFPLAPSSKSTSGGTAALGCLVKDYFPEPVTVSWNSGALTSGVHTFPAVLQSSGLYSLSSVVTVPSSSLGTQTYICNVNHKPSNTKVDKKVEPKSCDKTHTCPPCPAPELLTGPSVFLFPPKPKDTLMISRTPEVTCVVVDVSHEEPEVKFNWYVDGVEVHNAKTKPREEQYNSTYRVVSVLTVLHQDWLNGKEYKCKVSNDALPKPIEETISKAKGQPREPQVYTLPPSRCELTKNQVSLSCAVKGFYPSDIAVEWESNGQPENNYKTTPPVLDSDGSFFLVSKLTVDKSRWQQGNVFSCSVMHEALHNHYTQKSLSLSP light: DIQMTQSPSSLSASVGDRVTITCRASQDIHKYIAWYQQKPGQAPRLLIQYTSTLQPGVPSRFSGSGSGTDYTFTISSLQPEDIATYYCLQYEQLRTFGGGTKVEIKRTVAAPSVFIFPPSDEQLKSGTASVVCLLNNFYPREAKVQWKVDNALQSGNSQESVTEQDSKDSTYSLSSTLTLSKADYEKHKVYACEVTHQGLSSPVTKSFNRGEC | 0.27 | 16 | 38 | 380 | 24 | 14 | 1.3 | 1.1 | 0.4 | 0.1 | 0
